“And” between values parts separate entries of the source, which are not always exact repeats. Equal values may be shown once.
Tests used:
[1] = target: human chemokine CCL11 (Eotaxin-1) (human) (UniProt P51671); assay: native MS; ion mobility MS (Waters Synapt G2 HDMS), nanospray; CCL11 alone at 20 μM in 250 mM ammonium acetate (pH 6.8), native conditions
[2] = target: human chemokine CCL11 (Eotaxin-1) (human) (UniProt P51671); assay: crystal structure; very preliminary X-ray structure of the CCL11 tetramer bound to Arixtra; de-twinned; Rfactor 17.6%, Rfree 26.7%; not deposited
[3] = target: human chemokine CCL11 (Eotaxin-1) (human) (UniProt P51671); assay: native MS; ion mobility MS (Waters Synapt G2 HDMS), nanospray; equimolar (1:1) mixture of CCL11 and Arixtra in 250 mM ammonium acetate; oligomers seen unbound and bound to Arixtra; MS/MS of the [tetramer+Arixtra]12+ ion gives monomer and trimer+Arixtra

human chemokine CCL11 (Eotaxin-1), P51671 24-97 (natural protein; other documents disagree on this pair), sequence (P51671 24-97): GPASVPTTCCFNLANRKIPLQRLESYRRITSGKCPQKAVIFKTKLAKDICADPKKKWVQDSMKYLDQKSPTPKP

For “human chemokine CCL11 (Eotaxin-1), P51671 24-97 (natural protein; other documents disagree on this pair)”, the stoichiometry N [1] was 4 and 2, the stoichiometry N [2] was 4 and the stoichiometry N ([3]; Dimer + Arixtra) was 2. It also gave a stoichiometry N ([3]; Tetramer + Arixtra) of 4.

Source: publication PMC4030970, “Structural Evidence for the Tetrameric Assembly of Chemokine CCL11 and the Glycosaminoglycan Arixtra™” (Biomolecules, 2013)
